Measured values: patent publication US20220119523A1, “TREATMENT OF CUTANEOUS T CELL LYMPHOMA WITH TARGETING OF CD47 PATHWAY” (The Board of Trustees of the Leland Stanford Junior …, priority 2019, published 2022)

What was measured:
[1] = test system: newly diagnosed AML patients 65 years or older; conditions: 75 mg/m^2 per day SC for 7 consecutive days per 28-day cycle, at least 6 cycles; conventional care regimens 6.5 months; cited from earlier work
HuT78 tumor cells = test: Xenograft tumor model, HuT78 cells in NSG mice; format: in vivo; conditions: 250 μg intraperitoneal every other day, vs PBS
Method: (§1) Mice. 6-8 week old NSG (NOD.Cg-Prkdcscid Il2rgtm1Wjl/SzJ) mice were used.
(§2) Xenograft Tumor Models. […] For all treatments, antibodies where administered by intraperitoneal injection (100 μl) as follows: PBS and […] (250 μg) every other day. Tumor volume and survival was monitored.

CTCL tumor cells = test: In vitro phagocytosis assay, co-culture of macrophages with CTCL tumor cells; format: cell-based, human; conditions: for phagocytosis (percentage of GFP+ macrophages): 2 hours co-culture
Method: (§3) Cancer Cells. HH (CTCL lymphoblast ATCC); HuT78 (Sezary Syndrome CTCL, ATCC); HuT102 (Mycosis Fungoides CTCL, ATCC); and MJ (Mycosis Fungoides CTCL, ATCC) were cultured in RPMI (ThermoFisher S.) (DLD1), EMEM (ThermoFisher S.) (CACO-2, LS174T), McCoy's 5A (ThermoFisher S.) (HT29, HCT116), or Leibovitz's L-15 (ThermoFisher S.) (SW48, SW 620) supplemented with 10% fetal bovine serum (Omega Scientific), 100 U/mL penicillin and 100 μg/mL streptomycin (ThermoFisher S.)
(§4) In Vitro Phagocytosis Assay. Peripheral blood mononuclear cells were enriched by density gradient centrifugation and monocytes were purified with anti-CD14 microbeads (Miltenyi) and differentiated to macrophages by culture for 7-10 days in IMDM+GlutaMax (Invitrogen) supplemented with 10% AB-Human Serum (Invitrogen) and 100 U/mL penicillin and 100 μg/mL streptomycin (Invitrogen). Phagocytosis assays were performed by co-culture of 50,000 macrophages with 100,000 CTCL tumor cells for 2 hours, then analyzed using an LSRFortessa cell analyzer with high throughput sampler (BD Biosciences). Antibodies used for treatment included: IgG4 isotype control, anti-CD47—clone magrolimab (Stanford). Macrophages were identified by flow cytometry using anti-CD206 antibody. Dead cells were excluded from the analysis by staining with DAPI (Sigma). Phagocytosis was evaluated as the percentage of GFP+ macrophages and was normalized to the maximal response by each independent donor against each cell line.

HH tumor cells = test: Xenograft tumor model, HH cells in NSG mice; format: in vivo; conditions: 250 μg intraperitoneal every other day, vs PBS
Method: as §1, §2

HH = test: In vitro phagocytosis assay, HH cell line; format: cell-based, human; conditions: HH cells; macrophage from NOD scid gamma mice (NSG); vs IgG4 control antibody; FIG. 2A-2B
Method: as §3
as §4, with “Dead cells were excluded from the analysis by staining with DAPI (Sigma).” left out

HUT78 = test: In vitro phagocytosis assay, HUT78 cell line; format: cell-based, human; conditions: HUT78 cells; macrophage from NOD scid gamma mice (NSG); vs IgG4 control antibody; FIG. 2A-2B

Molecule: Nc1ncn([C@@H]2O[C@H](CO)[C@@H](O)[C@H]2O)c(=O)n1 [azacitidine]
- Median OS [1]: 10.4 months

B1: Magrolimab: monoclonal antibody designed to block CD47; specifically binds human CD47; humanized 5F9 with IgG4 (antibody, chains of the INN, looked up, V domains shown)
VH: QVQLVQSGAEVKKPGASVKVSCKASGYTFTNYNMHWVRQAPGQRLEWMGTIYPGNDDTSYNQKFKDRVTITADTSASTAYMELSSLRSEDTAVYYCARGGYRAMDYWGQGTLVTVSS
VL: DIVMTQSPLSLPVTPGEPASISCRSSQSIVYSNGNTYLGWYLQKPGQSPQLLIYKVSNRFSGVPDRFSGSGSGTDFTLKISRVEAEDVGVYYCFQGSHVPYTFGQGTKLEIK
- tumor volume (HuT78 tumor cells; FIG. 5A): reduced
- survival (HuT78 tumor cells; FIG. 5B): improved
- phagocytosis (percentage of GFP+ macrophages) (CTCL tumor cells; human macrophages (FIG. 2B)): significant increase in phagocytosis
- phagocytosis (percentage of GFP+ macrophages) (CTCL tumor cells; mouse macrophages (FIG. 2A)): significant increase in phagocytosis
- tumor volume (HH tumor cells; FIG. 4A): reduced
- survival (HH tumor cells; FIG. 4B): improved
- phagocytosis (percent of phagocytosis / percent of maximum phagocytosis) (HH): increased phagocytosis
- phagocytosis (percent of phagocytosis / percent of maximum phagocytosis) (HUT78): increased phagocytosis

B2: anti-CCR4: antibody that corresponds to mogamulizumab, a defucosylated anti-CCR4 humanized IgG1 antibody binding the N-terminal domain of CCR4 (antibody, chains of the INN, looked up, V domains shown)
VH: EVQLVESGGDLVQPGRSLRLSCAASGFIFSNYGMSWVRQAPGKGLEWVATISSASTYSYYPDSVKGRFTISRDNAKNSLYLQMNSLRVEDTALYYCGRHSDGNFAFGYWGQGTLVTVSS
VL: DVLMTQSPLSLPVTPGEPASISCRSSRNIVHINGDTYLEWYLQKPGQSPQLLIYKVSNRFSGVPDRFSGSGSGTDFTLKISRVEAEDVGVYYCFQGSLLPWTFGQGTKVEIK
- phagocytosis, combination of anti-CD47 and anti-CCR4 (CTCL tumor cells; FIG. 3A-3B, combined antibodies): synergizes with anti-CD47 antibody
- phagocytosis, antibody by itself (CTCL tumor cells; FIG. 3A-3B, single agent): little or no effect on phagocytosis
